B4: Rad55–Rad57 complex (complex, S. cerevisiae)
chain 1: MSLGIPLSQLIVESPKPLSSGITGLDEILNLGFQARSIYEIFGPPGIGKTNFGIQLVCNSLEGIQQSEINDDKILWIETFQEMPINILRERFQKFKIVEENVKRVRITKFGQLLYFFQNLFKLSQSVRYKLVIIDGFSQLVCDHLCTLSKRGGGMIDKTIHELKCRHLILIFTVMTKYTHSTGSTIIVLNDCMNTAFQSNEFESLEEYYEILDDGSNFFVNSNNERRKNNVHILKSALVANIAMGSKDSTWEVFLRDRIGLFRDWNEQVDETVFVKSKRVKASSSQSNEGCTTIKEMRINKRNFENLRIAIVFNLHGEDRKREGRNLKRSRSSDDRNYIVKFDFDKATGQLRDIIDLKPDTANIASFPTLSTSSSSCSQVFNNIDSNDNPLPNAEGKEEIIYDSEG
chain 2: MPRALSIKFDNTYMDLYDELPESKLLYDEEFSYLLDAVRQNGVCVVDFLTLTPKELARLIQRSINEVFRFQQLLVHEYNEKYLEICEKNSISPDNGPECFTTADVAMDELLGGGIFTHGITEIFGESSTGKSQLLMQLALSVQLSEPAGGLGGKCVYITTEGDLPTQRLESMLSSRPAYEKLGITQSNIFTVSCNDLINQEHIINVQLPILLERSKGSIKLVIIDSISHHLRVELQNKSFRESQENKNYLDRMAEKLQILAHDYSLSVVVANQVGDKPLANSPVAHRTYVTDYDYQLGWLVGWKNSTILYRQMNSLLGASSNNDEILSDDEDYMLIERVMSTVNDRNYDFFSKKKPPIIENKTVERNSSSPISRQSKKRKFDYRVPNLGLTWSNHVSTRILLQKSFKASTIIQRGEAHLYKGGDSASFWQVKRTMKVVYSTFAKPGQIAYQITKRGIETA

Assays:
Details in all cases: both partners purified
Rad55–Rad57 complex [1] = target: B4; experiment: pull-down; pull-down with Rad51; set-up only in Supplementary Fig. 2b; also with Csm2–Psy3 added to Rad55–Rad57 and Rad51
Rad55–Rad57 complex [2] = target: B4; experiment: pull-down; His-tagged Rad55–Rad57 (0.5 μg) with Csm2–Psy3 (0.5 μg), captured on Ni-NTA resin through (His)6 on Rad55; buffer C (20 mM MOPS pH 7.2, 150 mM KCl, 1 mM ATP, 2 mM MgCl2, 15 mM imidazole), 4 °C, washes with 200 mM KCl; SDS-PAGE, Coomassie
Rad55–Rad57 complex [3] = target: B4; experiment: pull-down; Shu complex with Rad55–Rad57; set-up only in Supplementary Fig. 2a
GST-tagged Rad52 = GST-tagged Rad52 (S. cerevisiae, UniProt P06778 1-471); experiment: pull-down; GST–Rad52 with one partner, captured on glutathione resin; buffer with 100 mM KCl, no imidazole, 4 °C; anti-FLAG immunoblot (FLAG on Rad57 and Psy3)
Chain of GST-tagged Rad52 (P06778 whole entry): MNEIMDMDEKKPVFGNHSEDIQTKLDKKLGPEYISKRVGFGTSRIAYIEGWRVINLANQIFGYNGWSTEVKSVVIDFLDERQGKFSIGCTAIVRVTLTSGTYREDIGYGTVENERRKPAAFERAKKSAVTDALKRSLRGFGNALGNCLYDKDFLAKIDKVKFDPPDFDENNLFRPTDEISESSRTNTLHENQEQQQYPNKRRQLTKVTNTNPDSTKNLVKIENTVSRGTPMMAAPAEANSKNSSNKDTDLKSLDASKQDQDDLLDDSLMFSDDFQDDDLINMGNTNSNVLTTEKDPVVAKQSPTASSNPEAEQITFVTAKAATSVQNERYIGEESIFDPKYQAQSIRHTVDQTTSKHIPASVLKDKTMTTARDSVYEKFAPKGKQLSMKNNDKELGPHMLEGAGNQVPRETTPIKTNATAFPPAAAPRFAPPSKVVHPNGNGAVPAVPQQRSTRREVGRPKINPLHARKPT

B1: Rad51 (natural protein, S. cerevisiae, UniProt P25454 1-400, looked up)
chain: MSQVQEQHISESQLQYGNGSLMSTVPADLSQSVVDGNGNGSSEDIEATNGSGDGGGLQEQAEAQGEMEDEAYDEAALGSFVPIEKLQVNGITMADVKKLRESGLHTAEAVAYAPRKDLLEIKGISEAKADKLLNEAARLVPMGFVTAADFHMRRSELICLTTGSKNLDTLLGGGVETGSITELFGEFRTGKSQLCHTLAVTCQIPLDIGGGEGKCLYIDTEGTFRPVRLVSIAQRFGLDPDDALNNVAYARAYNADHQLRLLDAAAQMMSESRFSLIVVDSVMALYRTDFSGRGELSARQMHLAKFMRALQRLADQFGVAVVVTNQVVAQVDGGMAFNPDPKKPIGGNIMAHSSTTRLGFKKGKGCQRLCKVVDSPCLPEAECVFAIYEDGVGDPREEDE
binding result (Rad55–Rad57 complex [1]): binds

B2: Csm2–Psy3 heterodimer (complex, S. cerevisiae)
chain 1: MEYEDLELITIWPSPTKNKLCQFIKQNLSKEHVVTQLFFIDATSSFPLSQFQKLVPPTLPENVRIYENIRINTCLDLEELSAITVKLLQILSMNKINAQRGTEDAVTEPLKIILYINGLEVMFRNSQFKSSPQRSHELLRDTLLKLRVMGNDENENASIRTLLEFPKEQLLDYYLKKNNNTRTSSVRSKRRRIKNGDSLAEYIWKYYADSLFE
chain 2: MEVLKNIRIYPLSNFITSTKNYINLPNELRNLISEEQESKLGFLHIIESDFKPSVALQKLVNCTTGDEKILIIDIVSIWSQQKQRQHGAIYMNSLSCINITGLIVFLELLYDSPMDALRRCQVDNFNFQLRGIVIDNLSFLNFESDKNYDVINLSKFEKLFKILRKLREFLGCWIITKSFPTDFYNGIENTLVDKWSIKRKSGVTLYPTKLPDSYMKGMDLIIYREVVDGRPQYRRIAALEE
binding result (Rad55–Rad57 complex [2]): binds

B3: Shu complex (Csm2–Psy3–Shu1–Shu2) (complex, S. cerevisiae)
chain 1: MEYEDLELITIWPSPTKNKLCQFIKQNLSKEHVVTQLFFIDATSSFPLSQFQKLVPPTLPENVRIYENIRINTCLDLEELSAITVKLLQILSMNKINAQRGTEDAVTEPLKIILYINGLEVMFRNSQFKSSPQRSHELLRDTLLKLRVMGNDENENASIRTLLEFPKEQLLDYYLKKNNNTRTSSVRSKRRRIKNGDSLAEYIWKYYADSLFE
chain 2: MEVLKNIRIYPLSNFITSTKNYINLPNELRNLISEEQESKLGFLHIIESDFKPSVALQKLVNCTTGDEKILIIDIVSIWSQQKQRQHGAIYMNSLSCINITGLIVFLELLYDSPMDALRRCQVDNFNFQLRGIVIDNLSFLNFESDKNYDVINLSKFEKLFKILRKLREFLGCWIITKSFPTDFYNGIENTLVDKWSIKRKSGVTLYPTKLPDSYMKGMDLIIYREVVDGRPQYRRIAALEE
chain 3: MQFEERLQQLVESDWSLDQSSPNVLVIVLGDTARKYVELGGLKEHVTTNTVAGHVASRERVSVVFLGRVKYLYMYLTRMQAQANGPQYSNVLVYGLWDLTATQDGPQQLRLLSLVLRQCLSLPSKVEFYPEPPSSSVPARLLRFWDHIIR
chain 4: MSKDVIEYSKLFAKLVNTNDDTKLDDTIASFLYYMFPRELFIRAISLLESSDMFIYILDRVHNKEGNEHTSLIDVLVDEFYKGSSNSLLEYRLIVKDTNDGAPPILVDIAHWFCSCEEFCKYFHEALEKTDEKEELHDVLINEVDDHLQFSDDRFAQLDPHSLSKQWYFKFDKVCCSHLLAFSILLRSSINVLKFFTVNSNKVFVIAIDNIDEWLNLHINIVE
binding result (Rad55–Rad57 complex [3]): binds

B4
binding result (GST-tagged Rad52): binds

From article PMC4525180 (Nature communications, 2015)
